Test results taken from US20240417462A1 (SHANGHAI CELGEN BIO PHARMACEUTICAL, published 2024).
Values joined by “and” are separate entries in the source; they are usually repeats but may differ in a detail not shown here. Identical values can stand only once. Like-named read-outs stand apart in the source and are kept apart here.

T1: recombinant human TIGIT (Human TIGIT His, Sino Biological, 10917-H08H) (human, UniProt Q495A1 22-138)
T1 construct: range 1-138; bought; also called hTIGIT
T1 sequence (looked up): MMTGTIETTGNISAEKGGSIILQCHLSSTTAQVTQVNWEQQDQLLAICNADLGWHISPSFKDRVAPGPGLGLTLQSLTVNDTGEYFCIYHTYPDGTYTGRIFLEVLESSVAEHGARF

T2: full-length human TIGIT expressed on CHO-K cell membrane (CHO-K-TIGIT) (human, UniProt Q495A1 22-244)
T2 construct: whole, on cells; also called CHO-TIGIT; membrane TIGIT
T2 sequence (looked up): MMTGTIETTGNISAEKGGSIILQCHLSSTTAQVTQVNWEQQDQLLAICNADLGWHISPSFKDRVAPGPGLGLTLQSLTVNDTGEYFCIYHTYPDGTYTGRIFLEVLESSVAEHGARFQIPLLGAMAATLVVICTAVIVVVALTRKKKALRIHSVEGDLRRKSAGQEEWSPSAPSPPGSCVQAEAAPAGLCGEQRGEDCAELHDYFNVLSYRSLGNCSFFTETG

T3: mouse TIGIT antigen (mouse, UniProt P86176 29-148, limits assumed)
T3 construct: construct not described; also called murine TIGIT
T3 sequence (looked up): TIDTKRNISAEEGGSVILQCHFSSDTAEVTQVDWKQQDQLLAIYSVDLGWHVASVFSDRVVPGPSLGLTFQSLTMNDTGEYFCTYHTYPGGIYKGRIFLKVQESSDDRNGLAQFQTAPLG


Experiments:
[1] = target: T1, recombinant human TIGIT (Human TIGIT …); experiment: competition ELISA, human TIGIT (His) coated, antibody titrated against fixed CD155, bound CD155 detected, OD450/655
[2] = target: T2, full-length human TIGIT expressed on …; experiment: flow cytometry, CHO-TIGIT cells
[3] = target: T1, recombinant human TIGIT (Human TIGIT …); experiment: BLI, antibody captured on anti-human Fc probe, TIGIT-His in solution
[4] = target: T1, recombinant human TIGIT (Human TIGIT …); experiment: ELISA, coated human TIGIT-His
[5] = target: T1, recombinant human TIGIT (Human TIGIT …); experiment: competition ELISA on recombinant human TIGIT, CD155 as competitor
[6] = target: T1, recombinant human TIGIT (Human TIGIT …); experiment: ELISA, recombinant human TIGIT (His) coated, anti-human-Fc-AP, OD405/490
Description: (§1) Antigen hTIGIT (Human TIGIT (His), Sino Biological, 10917-H08H) was diluted into 1 μg/mL with a NaHCO₃ solution of pH 9.6, 50 μl per well was added to a 96-well ELISA plate, and placed overnight in refrigerator at 4° C.
(§2) In order to determine whether the humanized TIGIT monoclonal antibody of the present disclosure could bind to the recombinant human TIGIT protein, in vitro testing was performed. Murine antibodies and Tiragolumab (Tira) were used as positive controls. The experimental method was the same as in Example 3.1.

[7] = target: T1, recombinant human TIGIT (Human TIGIT …); experiment: as above; remark: listed apart in the source
Description: as §1, §2

[8] = target: T1, recombinant human TIGIT (Human TIGIT …); experiment: BLI, antibody captured on anti-human Fc probe, TIGIT-His in solution; remark: listed apart in the source
[9] = target: T3, mouse TIGIT antigen; experiment: ELISA, coated mouse TIGIT
Description: (§3) The cynomolgus monkey or mouse TIGIT antigen of was coated with the same method as above, the anti-human TIGIT mouse monoclonal antibody was diluted in gradient, and then the anti-mouse Fab secondary antibody was added (Jackson Immuno Research, 515-035-072) for TMB development. ELISA was used to detect the binding of 8 mouse monoclonal antibodies to recombinant cynomolgus monkey TIGIT.

[10] = target: T1, recombinant human TIGIT (Human TIGIT …); experiment: competition ELISA, coated TIGIT-His, CD155-Fc as competitor
Description: In order to evaluate the competition between the anti-human TIGIT mouse monoclonal antibody and CD155 (Human CD155 (Fc Tag): Sino Biological, 10109-H02H) for binding to recombinant human TIGIT (Human TIGIT(His), Sino Biological, 10917-H08H), ELISA detection was performed, and the specific steps were as follows:
Primary antibody incubation: the plate was washed twice with PBS (250 μl/well), and patched dry. 6 μg/ml of CD155 was respectively diluted in a binding solution and added into a 96-well dilution plate at 60 μl/well. Then the screened hybridoma antibody was diluted with the binding solution, (the highest concentration was 30 μg/ml), and diluted to 3 times of concentration, and added into the corresponding dilution plate above at 60 μl/well. After mixing well, the sample was added to the coated 96-well ELISA plate at 100 μl/well. The plate was sealed with a sealing film and placed at 37° C. for 1.5 hours.
Secondary antibody incubation: the blocking solution was discarded, the plate was washed with 250 μl PBST for 3 times, and patched dry.

[11] = target: T4, recombinant cynomolgus monkey TIGIT (cynomolgus monkey, UniProt A0A7N9I9V4 89-209); experiment: ELISA, recombinant cynomolgus TIGIT coated, anti-mouse Fab secondary antibody, TMB, OD450/655nm
T4 construct: construct not described; also called cynomolgus TIGIT
Description: as §3

T4 sequence (A0A7N9I9V4 entry or part of it): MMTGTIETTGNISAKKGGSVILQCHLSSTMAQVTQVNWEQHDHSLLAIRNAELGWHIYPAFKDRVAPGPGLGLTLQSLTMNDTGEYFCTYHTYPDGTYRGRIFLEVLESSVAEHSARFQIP

| IC50 [1] | EC50 [2] [nM] | Kd [3] [nM] | koff [3] [s⁻¹] | kon [3] [M⁻¹ s⁻¹] | EC50 [4] [nM] | IC50 [5] [nM] | EC50 [6] | EC50 [7] [µg/mL] | Kd [8] [nM] | koff [8] [s⁻¹] | kon [8] [M⁻¹ s⁻¹] | binding result [9] | IC50 [10] [nM] | binding result [11] | Binder |
| --- | --- | --- | --- | --- | --- | --- | --- | --- | --- | --- | --- | --- | --- | --- | --- |
| 0.109 µg/mL and 0.728 nM | 0.963 | 8.43 | 0.00495 | 587000 | 0.0858 | 0.714 | – | – | – | – | – | – | – | – | humanized anti-human TIGIT monoclonal antibody P03479 (antibody, V domains shown) VH: EVQVVESGGGLVKPGGSLRLSCAASGFTFSTYAMSWVRQAPGKGLEWVAEISSGGSHTFYADTVKGRFTISRDNAKNTLYLQMNSLRAEDTAVYYCARKTLDYYALDYWGQGTTVTVSS VL: DVQITQSPSYLSASVGDRVTINCRASKSISKYLAWYQQKPGKAPKLLIYSGSRLQSGIPSRFSGSGYGTDFTLTISSLQPEDFATYYCQQHNEYPWTFGGGTKLEIK |
| 0.094 µg/mL | – | 2.4 | 0.0031 | 1.29e+06 | – | 0.63 | 0.0063 µg/mL and 0.0419 nM | – | – | – | – | – | – | – | humanized anti-human TIGIT monoclonal antibody P04662 (antibody, V domains shown) VH: EVQVVESGGGLVKPGGSLRLSCAASGFTFSTYAMSWVRQAPEQRLEWVAEISSGGSHTFYSDTVTGRFTISRDNAKNTLYLQMNSLRAEDTAVYYCARKTLDYYALDYWGQGTTVTVSS VL: DVQITQSPSSVSASVGDRVTINCRASKSISKYLAWYQQKPGKAPKLLIYSGSRLQSGVPSRFSGSGSGTDFTLTISSLQPEDFATYYCQQHNEYPWTFGGGTKLEIK |
| – | – | 5.58 | 0.00583 | 1.04e+06 | – | – | 0.0136 µg/mL and 0.0913 nM | – | – | – | – | – | – | – | humanized anti-human TIGIT monoclonal antibody P04665 (antibody, V domains shown) VH: EVQVVESGGGLVKPGGSLRLSCAASGFTFSTYAMSWVRQAPEQRLEWVAEISSGGSHTFYSDTVTGRFTISRDNAKNTLYLQMNSLRAEDTAVYYCARKTLDYYALDYWGQGTTVTVSS VL: DIQMTQSPSSVSASVGETITITCRASKSISKYLAWYQQKPGKAPKLLIYSGSRLQSGVPSRFSGSGSGTDFTLTISSLQPEDFATYYCQQHNEYPWTFGGGTKLEIK |
| 0.089 µg/mL | – | 2 | 0.00307 | 1.53e+06 | – | 0.594 | 0.0049 µg/mL and 0.033 nM | – | – | – | – | – | – | – | humanized anti-human TIGIT monoclonal antibody P04663 (antibody, V domains shown) VH: EVQVVESGGGLVKPGGSLRLSCAASGFTFSTYAMSWVRQAPEQRLEWVAEISSGGSHTFYADTVKGRFTISRDNAKNTLYLQMNSLRAEDTAVYYCARKTLDYYALDYWGQGTTVTVSS VL: DVQITQSPSSVSASVGDRVTINCRASKSISKYLAWYQQKPGKAPKLLIYSGSRLQSGVPSRFSGSGSGTDFTLTISSLQPEDFATYYCQQHNEYPWTFGGGTKLEIK |
| – | – | – | – | – | 0.532 | – | – | 0.0794 | 1.43 | 0.000804 | 562000 | – | – | – | humanized anti-human TIGIT monoclonal antibody P03487 (antibody, V domains shown) VH: QVQLVQSGAEVKKPGASVKVSCKASGYTFISYNIYWVRQAPGQGLEWIGGVNPSNGNTNFNENFKSRVTLTVDKSISTAYMELSRLRSDDTAVYYCTRGNYYGYEFAYWGQGTTVTVSS VL: DIQMTQSPSSMSASVGDRVTITCKASQHVSTAVAWYQQKPGKAPKLLIYSPSYRYTGVPSRFSGSGSGTDFTFTISSVQPEDIATYYCQQHYSTPWTFGGGTKLEIK |
| – | – | – | – | – | 0.511 | – | – | 0.0763 | 1.14 | 0.000584 | 511000 | – | – | – | humanized anti-human TIGIT monoclonal antibody P03486 (antibody, V domains shown) VH: QVQLVQSGAEVKKPGASVKLSCKASGYTFISYNIYWVRQAPGQGLEWIGGVNPSNGNTNFNENFKSRATLTVDKSSSTAYMELSRLRSDDTAVYFCTRGNYYGYEFAYWGQGTTVTVSS VL: DIQMTQSPSSMSASVGDRVTITCKASQHVSTAVAWYQQKPGKAPKLLIYSPSYRYTGVPSRFSGSGSGTDFTFTISSVQPEDIATYYCQQHYSTPWTFGGGTKLEIK |
| – | – | – | – | – | 0.471 | – | – | 0.0702 | 1.88 | 0.00095 | 506000 | – | – | – | humanized anti-human TIGIT monoclonal antibody P03491 (antibody, V domains shown) VH: QVQLVQSGAEVKKPGASVKVSCKASGYTFISYNIYWVRQAPGQGLEWIGGVNPSNGNTNFNENFKSRVTLTVDKSISTAYMELSRLRSDDTAVYYCTRGNYYGYEFAYWGQGTTVTVSS VL: DIQMTQSPSSLSASVGDRVTITCKASQHVSTAVAWYQQKPGKAPKLLIYSPSYRYTGVPSRFSGSGSGTDFTFTISSLQPEDIATYYCQQHYSTPWTFGGGTKLEIK |
| – | 0.557 | – | – | – | 0.444 | – | – | 0.0662 | 1.12 | 0.000513 | 458000 | – | – | – | humanized anti-human TIGIT monoclonal antibody P03493 (antibody, V domains shown) VH: QVQLVQSGAEVKKPGASVKVSCKASGYTFISYNIYWVRQAPGQGLEWMGGVNPSNGNTNFNENFQGRVTMTVDTSISTAYMELSRLRSDDTAVYYCTRGNYYGYEFAYWGQGTTVTVSS VL: DIQMTQSPSSLSASVGDRVTITCKASQHVSTAVAWYQQKPGKAPKLLIYSPSYRYTGVPSRFSGSGSGTDFTFTISSLQPEDIATYYCQQHYSTPWTFGGGTKLEIK |
| – | – | – | – | – | 0.501 | – | – | 0.0749 | 1.27 | 0.000664 | 522000 | – | – | – | humanized anti-human TIGIT monoclonal antibody P03490 (antibody, V domains shown) VH: QVQLVQSGAEVKKPGASVKLSCKASGYTFISYNIYWVRQAPGQGLEWIGGVNPSNGNTNFNENFKSRATLTVDKSSSTAYMELSRLRSDDTAVYFCTRGNYYGYEFAYWGQGTTVTVSS VL: DIQMTQSPSSLSASVGDRVTITCKASQHVSTAVAWYQQKPGKAPKLLIYSPSYRYTGVPSRFSGSGSGTDFTFTISSLQPEDIATYYCQQHYSTPWTFGGGTKLEIK |
| – | 0.437 | – | – | – | 0.463 | – | – | 0.0692 | 1.49 | 0.000781 | 525000 | – | – | – | humanized anti-human TIGIT monoclonal antibody P03492 (antibody, V domains shown) VH: QVQLVQSGAEVKKPGASVKVSCKASGYTFISYNIYWVRQAPGQGLEWIGGVNPSNGNTNFNENFKGRVTLTVDTSISTAYMELSRLRSDDTAVYYCTRGNYYGYEFAYWGQGTTVTVSS VL: DIQMTQSPSSLSASVGDRVTITCKASQHVSTAVAWYQQKPGKAPKLLIYSPSYRYTGVPSRFSGSGSGTDFTFTISSLQPEDIATYYCQQHYSTPWTFGGGTKLEIK |
| – | – | – | – | – | 0.0372 | – | – | – | – | – | – | no binding | 0.0857 | no binding | anti-human TIGIT mouse monoclonal antibody 7103-08 (antibody, V domains shown, also called 49F8-1-2) VH: EVQLQESGPELVKPGASVKISCKASGYSFTGYYMLWVKQSHVKSLEWIGRINPYNGATTYNQNFKDKASLTVNKSSSTAYMELHSLTSEDSAVYYCARWFGDFDFWGQGTTLTVSS VL: DIQMTQSPSSLSASLGERVSLTCRASQEISGYLSWLQQKPDGTIKRLIYATSTLDSGVPKRFSGSRSGSDYSLTISSLESEDFADYYCLQYASYPFTFGSGTKLEIK |
